The text below walks through data of patent US20260242478A1 (published 2026).

The target of test [1] is T1, Anti-CD28 Fab (SEQ ID NOs: 696, 697).
T1 construct: Biotinylated and captured on neutravidin coated plates in the phage ELISA
Briefly: phage binding ELISA on captured anti-CD28 Fab; competitor CD28 antigen. On the technique in general: An ELISA detects its analyte on a solid surface through an enzyme-linked reagent.
Procedure: (§1) Clonal phage were harvested as crude supematants and screened via standard ELISAs. […] Prior to the addition of clonal phage, wells were incubated with blocking buffer and CD28 antigen or blocking buffer alone. Without washing or aspirating, clonal phage supematants were then added to the wells and incubated for a short time. Wells were then washed followed by detection of bound phage using a horse radish conjugated anti-M13 antibody.

The target is the same in test [2]. Put plainly: phage binding ELISA; biotinylated anti-CD28 Fab on neutravidin plate, anti-M13 HRP detection.
Procedure: as §1
Test [3] deals with anti-CD28 Fab. Briefly: competition ELISA, peptide titrated 0-100 uM against 1 nM anti-CD28 Fab, plate-bound CD28 as competitor.
Target sequence in this assay (VH, as listed by the source, chain 1 of 2): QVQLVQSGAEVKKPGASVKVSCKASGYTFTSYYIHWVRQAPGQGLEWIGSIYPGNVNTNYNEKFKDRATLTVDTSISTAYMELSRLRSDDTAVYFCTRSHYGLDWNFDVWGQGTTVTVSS
Target sequence in this assay (VL, as listed by the source, chain 2 of 2): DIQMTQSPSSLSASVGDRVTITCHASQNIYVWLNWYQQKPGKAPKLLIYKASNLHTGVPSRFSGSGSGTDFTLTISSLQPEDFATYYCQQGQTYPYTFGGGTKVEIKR
Test [4] concerns the target T2, Anti-PSMA Fab (SEQ ID NOs: 19, 20).
T2 construct: also called 006 PSMA Fab
Put plainly: phage ELISA; clonal phage on captured PSMA Fab pre-incubated with PSMA antigen as competitor, anti-M13 HRP detection.
Procedure: (§2) Clonal phage were harvested as crude supernatants and screened via standard ELISAs. […] Prior to the addition of clonal phage. wells were incubated with blocking buffer and PSMA antigen or blocking buffer alone. Without washing or aspirating, clonal phage supernatants were then added to the wells and incubated for a short time. Wells were then washed followed by detection of bound phage using a horse radish conjugated anti-M13 antibody.

The target is the same in test [5]. Put plainly: phage ELISA; clonal phage supernatant on biotinylated PSMA Fab captured on neutravidin plates, anti-M13 HRP detection.
Procedure: as §2
In test [6] the target is anti-CD28 Fab. Briefly: BLI (Octet): biotinylated peptide on streptavidin sensor, anti-CD28 Fab titrated in solution, 1:1 model. Background: BLI is a label-free optical method that tracks binding on a fibre tip over time.
Target sequence in this assay (VH, as listed by the source, chain 1 of 2): as the sequence (VH, as listed by the source, chain 1 of 2) above
Target sequence in this assay (VL, as listed by the source, chain 2 of 2): as the sequence (VL, as listed by the source, chain 2 of 2) above

Where no end group is shown, it is not given here.

T1 sequence (VH, as listed by the source, chain 1 of 2): as the sequence (VH, as listed by the source, chain 1 of 2) above
T1 sequence (VL, as listed by the source, chain 2 of 2): as the sequence (VL, as listed by the source, chain 2 of 2) above

B1: Phage-464 (peptide)
peptide: WCWDYKLWVPMTCP
modifications: cysteine pairing not given here; also: displayed as fusion to phage pIII, linker and pIII sequence not given here
notes: Clonal phage supernatant; also called Peptide-85; not shown: fused to the pIII filament protein of the bacteriophage
In the case of B1, in test [1], the “Anti-CD28 Fab signal in the presence of CD28” value (from here on “Anti-CD28 Fab signal”) is 0.11. Further, in test [2], the “Anti-CD28 Fab (SEQ ID NOs: 696, 697) signal” value came to 2.51. Broadly, the IC50 is the concentration needed to halve the response being measured. A higher IC50 goes with a need for much substance. In the test with anti-CD28 Fab [3], YCEGHSQENIWKCL [Peptide-124] came in with an IC50 of 4070 nM. In other words, the single-digit micromolar range.

B2: Phage-472 (peptide)
peptide: DCPWLSGFSRPLLC
notes: Clonal phage supernatant; also called Peptide-93; not shown: fused to the pIII filament protein of the bacteriophage
On to B2, for which the “Anti-CD28 Fab signal” value in test [1] was found to be 0.07. In addition, in test [2], the “Anti-CD28 Fab (SEQ ID NOs: 696, 697) signal” value was 1.27. In the case of PLCGTEEVWWECRL [Phage-1747], the “Phage binding ELISA, Anti-PSMA Fab signal in the presence of PSMA” value (“Phage binding ELISA … of PSMA” for short) in test [4] stood at 0.0826. For the same molecule, the “Phage binding ELISA, Anti-PSMA Fab (SEQ ID NOs: 19, 20) signal” value in test [5] worked out at 1.78.

Consider HCSGHHWLQVWKCF [Peptide-130], for which the IC50 in the test with anti-CD28 Fab [3] was > 100000 nM. YCWVDADMWLIFRC [Phage-1749]: in test [4], the “Phage binding ELISA … of PSMA” value came out at 0.275. In test [5], the “Phage binding ELISA, Anti-PSMA Fab (SEQ ID NOs: 19, 20) signal” value was 1.01. The like results for QCTWNEKTWWMECE [Phage-1754] were, in that order, 0.0568 and 1.35. In the case of MEYCSFHRFTCVLW [Phage-1743], the “Phage binding ELISA … of PSMA” value in test [4] amounted to 0.116. Also, the “Phage binding ELISA, Anti-PSMA Fab (SEQ ID NOs: 19, 20) signal” value in test [5] is 1.93.

ILPCHWYTSDCPQH (also called Peptide-200) [Phage-1750]: in test [4], the “Phage binding ELISA … of PSMA” value is 0.117. Also, in test [5], the “Phage binding ELISA, Anti-PSMA Fab (SEQ ID NOs: 19, 20) signal” value was determined as 1.63. The like results for QLPCHYWGEWCPQA [Phage-1745] were, in that order, 0.0537 and 1.39.

B3: Phage-463 (peptide)
peptide: YCAGHSPINIGKCL
modifications: cysteine pairing not given here; also: displayed as fusion to phage pIII, linker and pIII sequence not given here
notes: Clonal phage supernatant; also called Peptide-84; not shown: fused to the pIII filament protein of the bacteriophage
Regarding B3, in test [1], the “Anti-CD28 Fab signal” value amounted to 0.06. For the same molecule, the “Anti-CD28 Fab (SEQ ID NOs: 696, 697) signal” value in test [2] came out at 1.49. Regarding DCHWNKATWWMDCE [Phage-1757], the “Phage binding ELISA … of PSMA” value in test [4] amounted to 0.0828. Also, the “Phage binding ELISA, Anti-PSMA Fab (SEQ ID NOs: 19, 20) signal” value in test [5] was 1.18. For QCVWDLTNYWMNCD [Phage-1756], in test [4], the “Phage binding ELISA … of PSMA” value stood at 0.057. Also, the “Phage binding ELISA, Anti-PSMA Fab (SEQ ID NOs: 19, 20) signal” value in test [5] was found to be 1.3.

In turn, YCEGHEGIYFWKCL [Peptide-119] came in with an IC50 with anti-CD28 Fab [3] of 77700 nM. The molecule YCEGHSSEYIQKCL [Peptide-129] had a half-inhibitory concentration (IC50) in the test with anti-CD28 Fab [3] of 3180 nM. Turning to FWECYSSFCRFVEG [Phage-1746], the “Phage binding ELISA … of PSMA” value in test [4] came to 0.139. The “Phage binding ELISA, Anti-PSMA Fab (SEQ ID NOs: 19, 20) signal” value in test [5] was 1.46.

B4: Phage-468 (peptide)
peptide: YWYCSPSIVRCVLV
notes: Clonal phage supernatant; also called Peptide-89; not shown: fused to the pIII filament protein of the bacteriophage
Consider B4, for which the “Anti-CD28 Fab signal” value in test [1] amounted to 0.09. Moreover, the “Anti-CD28 Fab (SEQ ID NOs: 696, 697) signal” value in test [2] was determined as 1.51.

Molecule YCEGHLPEYLEKCV [Peptide-133] came in with a half-maximal inhibitory concentration (IC50) with anti-CD28 Fab [3] of 2900 nM. The same measure, in the same setting: as for YCEGHSPEYILKCL [Peptide-117], the figure is 1530 nM. Same read-out and setting: then YCEGHRPEYILKCL [Peptide-118], with 13300 nM; and YCEGHLPEYIEKCL, with 360 nM; and YCEGHAPEYIWKCL [Peptide-123], with 1320 nM. The molecule YCEGHAPEYIRKCL [Peptide-122] showed a 50% inhibitory concentration (IC50) with anti-CD28 Fab [3] of 2220 nM. Compared with the last molecule, the IC50 is about 1.7-fold higher.

On to YCEGHAPEYIGKCL [Peptide-136], for which the 50% inhibitory concentration (IC50) in the test with anti-CD28 Fab [3] amounted to 4120 nM. Still for that read-out and setting: as for YCEGHLPEYIWKCL [Peptide-135], the figure is 630 nM; as for YCEGHAPEYIAKCL [Peptide-121], 480 nM. With LTRCVPDWMCYRAV [Phage-1748], the “Phage binding ELISA … of PSMA” value in test [4] stood at 0.0708. Moreover, the “Phage binding ELISA, Anti-PSMA Fab (SEQ ID NOs: 19, 20) signal” value in test [5] worked out at 1.17. As for MCQWDKINYWMDCD [Phage-1755], the “Phage binding ELISA … of PSMA” value in test [4] came to 0.049. The “Phage binding ELISA, Anti-PSMA Fab (SEQ ID NOs: 19, 20) signal” value in test [5] was determined as 1.81.

YCEGHLPEYLGKCL [Peptide-125] had an IC50 with anti-CD28 Fab [3] of 830 nM. That is a sub-micromolar value. The molecule YCEGHLPEYLAKCL [Peptide-127] had an IC50 with anti-CD28 Fab [3] of 300 nM.

B5: Phage-466 (peptide)
peptide: YCAGHAWQYINKCL
modifications: cysteine pairing not given here; also: displayed as fusion to phage pIII, linker and pIII sequence not given here
notes: Clonal phage supernatant; also called Peptide-87; not shown: fused to the pIII filament protein of the bacteriophage
For the molecule B5, the “Anti-CD28 Fab signal” value in test [1] stood at 0.07. In addition, the “Anti-CD28 Fab (SEQ ID NOs: 696, 697) signal” value in test [2] came out at 0.64.

With QCVWDRGTWWMACD [Phage-1759], in test [4], the “Phage binding ELISA … of PSMA” value was 0.052. In test [5], the “Phage binding ELISA, Anti-PSMA Fab (SEQ ID NOs: 19, 20) signal” value stood at 0.414.

B6: Phage-465 (peptide)
peptide: DCWWMFESYPGRCI
modifications: cysteine pairing not given here; also: displayed as fusion to phage pIII, linker and pIII sequence not given here
notes: Clonal phage supernatant; also called Peptide-86; not shown: fused to the pIII filament protein of the bacteriophage
B6: the “Anti-CD28 Fab signal” value in test [1] stood at 0.07. For the same molecule, the “Anti-CD28 Fab (SEQ ID NOs: 696, 697) signal” value in test [2] was 1.65. For the molecule HCLWHESSGRVLCF [Phage-1742], the “Phage binding ELISA … of PSMA” value in test [4] was 0.0678. Besides, the “Phage binding ELISA, Anti-PSMA Fab (SEQ ID NOs: 19, 20) signal” value in test [5] was determined as 2.15. Taken in the same sequence, the figures for MCFVTGWGVPDDCN [Phage-1758] were 0.0694 and 0.638. In the case of YCEGHSQEYLWKCL [Peptide-128], the IC50 in the test with anti-CD28 Fab [3] was found to be 9660 nM. For SKLLCVPPWMCYHV [Phage-1744], in test [4], the “Phage binding ELISA … of PSMA” value was determined as 0.0794. In test [5], the “Phage binding ELISA, Anti-PSMA Fab (SEQ ID NOs: 19, 20) signal” value came out at 0.806.

Usually Kd stands for the concentration at which binding is half-saturated. Higher therefore signals lower affinity. As a reminder, the koff is a measure of how fast the partners let go of each other. Usually kon stands for the rate constant with which the complex forms. The low end stands for slow association, the high end for fast association. With YCEGHLPEYIEKCL (cysteine pairing not given here; also: biotinylated, site not given here), in the test with anti-CD28 Fab [6], the Kd was 926 nM, the koff stood at 0.0239 s⁻¹, the kon turned out to be 25800 M⁻¹ s⁻¹ and the “t1/2” value is 30 s.

As to WCWVQDDRRHVVCG [Phage-1751], the “Phage binding ELISA … of PSMA” value in test [4] came out at 0.0549. In test [5], the “Phage binding ELISA, Anti-PSMA Fab (SEQ ID NOs: 19, 20) signal” value came to 1.19.

B7: Phage-470 (peptide)
peptide: WICDKSGSIMLCRA
notes: Clonal phage supernatant; also called Peptide-91; not shown: fused to the pIII filament protein of the bacteriophage
Consider B7, for which the “Anti-CD28 Fab signal” value in test [1] was 0.06. Also, the “Anti-CD28 Fab (SEQ ID NOs: 696, 697) signal” value in test [2] stood at 0.91. As for MCQWDELNYWMDCD [Phage-1752], the “Phage binding ELISA … of PSMA” value in test [4] was 0.0565. Besides, the “Phage binding ELISA, Anti-PSMA Fab (SEQ ID NOs: 19, 20) signal” value in test [5] came to 1.65. In the case of QCVWDNFNYWMDCD [Phage-1753], the “Phage binding ELISA … of PSMA” value in test [4] stood at 0.0667. Besides, in test [5], the “Phage binding ELISA, Anti-PSMA Fab (SEQ ID NOs: 19, 20) signal” value was determined as 0.772. Turning to YCWSHSPPFIKKCY [Peptide-131], the IC50 with anti-CD28 Fab [3] was > 100000 nM.
